For 72 sequences, protein stability index results are on record in the supplement of paper PMC10567573.

± gives the standard deviation.

The nature of this data set: protein stability index of a GFP-peptide fusion (GPS, HEK-293T) (PSI 1-6); higher = more stable.
Setting [1] is: treatment: DMSO, c terminus: a fixed tail appended.
Where [2] appears, read: treatment: MLN4924 1 uM, 8 h, c terminus: a fixed tail appended.
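Note: 24-mer peptide tiles fused after GFP, lentivirally expressed, FACS-sorted into six equal bins by GFP/DsRed ratio, decoded by Illumina sequencing, PSI is the read-weighted mean bin number.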

On to SKSGYLRYSCESRIRSYLREVSSY [DFFB], for which the protein stability index reads like this: under setting [1], 2.1 ± 0.17; under setting [2], 2.34 ± 0.37. On the same counts, the results for SLFSPVTEDSPLGTVVALLNVHDL [PCDHGA10] are 2.31 ± 0.2 and 2.32 ± 0.3. For SLKLASSELERLIVPNSNGVITTT [JUNB], the protein stability index under setting [1] came out at 3.24 ± 0.41 and the protein stability index under setting [2] is 3.4 ± 0.54. For SLLCLLCSNSQEHGAHKHHPIEEA [TRIM43], in that order: 2.67 ± 0.2 and 2.77 ± 0.21. For SLVRDTIARVHGTFGAAACSIGFA [POP5], in that order: 2.31 ± 0.38 and 2.48 ± 0.22.

The sequence SMPVRLLGHSPVLRNITNSQAPDG [CDC25B] came in with a protein stability index under setting [1] of 3.23 ± 0.22 and a protein stability index under setting [2] of 3.4 ± 0.24.

Take SPEIMASVLNGKFANLIKEFVIID [CDC25A]: the protein stability index is, setting by setting: under setting [1], 2.47 ± 0.29; under setting [2], 2.23 ± 0.19.

Consider SPFAQFACDNGLNVRGGKPDDITV [PPTC7], for which the protein stability index is 4.22 ± 0.23 under setting [1] and 4.14 ± 0.16 under setting [2].

Consider SPFSVHPKTGRISVPIDLQKVDQF [PRIM1], for which the protein stability index amounted to 3.18 ± 0.59 under setting [1] and 3.42 ± 0.37 under setting [2]. For SPLQTIGEEQTQNPYTELLVLKAH [WDR41], in that order: 3.78 ± 0.078 and 3.75 ± 0.3. For SQIETLTSVFQKKLCTAHMCSTLE [MATN2], in that order: 2.03 ± 0.2 and 2.81 ± 0.74.

Regarding SQSLWNRLSVLLNLLPAAGELQES [SMG5], the protein stability index by setting is: under setting [1], 2.75 ± 0.37; under setting [2], 2.25 ± 0.18. On the same counts, the results for SQVSWEQDLKLFLQEPGVFSPTPP [FCHSD1] are 3.36 ± 0.4 and 3.61 ± 0.1. For SQWDVLSGDCDQRFRFPSPILKVQ [RBBP5], in that order: 3.34 ± 0.14 and 3.38 ± 0.32. In the case of SRFYEIHARARDQGQPAMEGHCVI [PCDHGC5], the protein stability index was found to be 2.82 ± 0.27 under setting [1] and 2.54 ± 0.15 under setting [2]. On the same counts, the results for SRNEFDRTIAETEAAYLKILESSQ [SSNA1] are 3.95 ± 0.22 and 4.04 ± 0.34.

Regarding SRRSMAHILKARKVLTEPEVRYYL [PLK2], the protein stability index reads like this: under setting [1], 2.48 ± 0.35; under setting [2], 2.43 ± 0.15. On to SRRSYDDQLRSGSPPKSPRTTVHD [DNAJC4], for which the protein stability index was 4.89 ± 0.31 under setting [1] and 4.98 ± 0.23 under setting [2]. SSAGGAKAGQPESRALALFDIQKI [ZNF8]: the protein stability index is 3.99 ± 0.52 under setting [1] and 4.26 ± 0.26 under setting [2]. For SSFNFFVFFFIFFVQDVLFVLQAI [SCAMP3], in that order: 3.17 ± 0.26 and 3.18 ± 0.28. For SSGKLICSRTTGYQILTLEKDQEQ [GMCL1], in that order: 3.94 ± 0.46 and 4.37 ± 0.28.

With SSIPRRDDFFRHESGEHFRSLLGY [RAD54B], the protein stability index was determined as 2.65 ± 0.21 under setting [1] and 2.57 ± 0.33 under setting [2]. As for SSSKWQRRDYLLLVMEGTDDGRLL [APMAP], the protein stability index under setting [1] stood at 2.88 ± 0.43 and the protein stability index under setting [2] was found to be 2.32 ± 0.39. For SSTPDSTEGGNDDSDFRELHTARE [RTN2], in that order: 5.41 ± 0.29 and 5.53 ± 0.21. On to SSYYKFKLTREVLSLFVQKLGNLM [ZER1], for which the protein stability index under setting [1] was determined as 2.83 ± 0.45 and the protein stability index under setting [2] stood at 2.6 ± 0.36. Take STLGGDIRESDPEQAPAPGEATAA [TBX6]: the protein stability index runs as follows: under setting [1], 5.65 ± 0.14; under setting [2], 5.53 ± 0.38. For STQTKKLSASSPRMLHRSTQTTND [ZMYND11], in that order: 4.71 ± 0.54 and 5.15 ± 0.17. For STSGQPYPTSDQEGDPGSKQPRKK [LCOR], in that order: 5.5 ± 0.13 and 5.42 ± 0.19. Regarding SVGSYLDTLADDVPGHQTPSDLDQ [LURAP1L], the protein stability index is, setting by setting: under setting [1], 5.28 ± 0.23; under setting [2], 5.34 ± 0.24. On the same counts, the results for SVSRFFADSGADPKGEPGSKQSPP [FBF1] are 5.09 ± 0.2 and 5.14 ± 0.14. With SVVDHPMPEERASKYENYFSASER [HESX1], the protein stability index runs as follows: under setting [1], 4.73 ± 0.37; under setting [2], 4.76 ± 0.17. For SVYAWGGGLGTPLRLPMLNTEVVQ [NEK8], in that order: 2.63 ± 0.39 and 2.69 ± 0.32. Consider SVYVKLAGEREDLWAGSKGKEFGY [MIA2], for which the protein stability index under setting [1] worked out at 2.52 ± 0.23 and the protein stability index under setting [2] turned out to be 2.85 ± 0.15. On the same counts, the results for SWLDVQVSNTYVKQKTSAALSTMG [TPD52L3] are 2.79 ± 0.27 and 2.47 ± 0.22. For SWSALWNITDETPDNCEMFLNFNG [ZER1], in that order: 2.61 ± 0.25 and 2.79 ± 0.23. For SYCPHCGEESSKAKEVTIAKADTT [EHMT1], in that order: 4.27 ± 0.19 and 4.58 ± 0.19. Turning to SYQEEAAMELKVEDPFYWVSPGVL [MOG], the protein stability index under setting [1] was found to be 3.25 ± 0.5 and the protein stability index under setting [2] amounted to 3.28 ± 0.13. For SYRETRRKEGIVKLKPHEEPLRSE [PTPN9], in that order: 4.66 ± 0.079 and 4.73 ± 0.3. On the same counts, the results for SYWEDLRKQARQLENELDLKLVSF [GOSR1] are 2.37 ± 0.24 and 2.57 ± 0.2. For TAPQQKPIGKISKNKKKKLKKKQK [SRPK2], in that order: 4.92 ± 0.32 and 4.84 ± 0.67.

Turning to TAYWALAGSIGGLFFAVGIAQYAL [SLC22A15], the protein stability index came to 3.06 ± 0.15 under setting [1] and 2.89 ± 0.18 under setting [2]. Regarding TCQRVNGIKVQNGGIVTDTPASNH [SLC19A2], the protein stability index turned out to be 4.08 ± 0.34 under setting [1] and 4.22 ± 0.17 under setting [2]. On the same counts, the results for TDLVQFLLFKYQMKEPITKAEILE [MAGEA10] are 2.48 ± 0.43 and 2.2 ± 0.23.

Consider TEGNPRWEQTHLTYRIENYTPDLP [MMP1], for which the protein stability index turned out to be 3.37 ± 0.099 under setting [1] and 3.51 ± 0.35 under setting [2].

With TGEKPYQCNICGKCFSCNSNLHRH [ZNF263], the protein stability index is, setting by setting: under setting [1], 4.03 ± 0.2; under setting [2], 4.52 ± 0.26. As to TGFIFQKVGKLAATAVGGGFFLLQ [FUNDC2], the protein stability index reads like this: under setting [1], 2.36 ± 0.21; under setting [2], 2.09 ± 0.51.

Regarding TGMWWRHLVAGGGAGAVSRTCTAP [SLC25A25], the protein stability index runs as follows: under setting [1], 2.32 ± 0.25; under setting [2], 2.48 ± 0.42.

Consider TILDIFRFALRFIRPDPRSRVTDP [FAF2], for which the protein stability index was found to be 2.75 ± 0.48 under setting [1] and 2.75 ± 0.099 under setting [2]. Take TILLDGRRVKLQLWDTSGQGRFCT [RAB40B]: the protein stability index runs as follows: under setting [1], 2.28 ± 0.22; under setting [2], 2.14 ± 0.13. For TIQVHRRYWRSLRVMKVEDREGPS [HDAC6], in that order: 2.31 ± 0.21 and 3.14 ± 0.34. For TISFLGCAIQMFSFLFLGCSHSFL [OR10K2], in that order: 3.14 ± 0.41 and 3.6 ± 0.52. On the same counts, the results for TLALQGTQGQEKMMMMGPKEEEQS [ZNF232] are 5.29 ± 0.31 and 5.43 ± 0.14. Turning to TLDQTTSEEAPGGTELIQTPLASS [HDAC6], the protein stability index turned out to be 5.52 ± 0.22 under setting [1] and 5.49 ± 0.26 under setting [2]. In the case of TLQELLARDTVQVELIPEKKGLFL [SNX8], the protein stability index is, setting by setting: under setting [1], 2.47 ± 0.62; under setting [2], 2.41 ± 0.43. For the sequence TMLAGHYPFQDSEPVLLFGKIRRG [TRIB3], the protein stability index reads like this: under setting [1], 2.56 ± 0.16; under setting [2], 2.77 ± 0.25. On the same counts, the results for TNVVTGHRQSFGTNSDVLAQQFAL [DCAF4] are 3.35 ± 0.1 and 3.43 ± 0.33. Regarding TPATPATLSASSSAGGSRTPAMSS [TFE3], the protein stability index runs as follows: under setting [1], 4.99 ± 0.23; under setting [2], 4.95 ± 0.3. On the same counts, the results for TQPPDESCSQNLLITQQIIPVLYC [P2RY14] are 2.28 ± 0.25 and 2.23 ± 0.22. On the same counts, the results for TRIHILPSMNPDGYEVAAAQGPNK [CPN1] are 4.13 ± 0.25 and 4.06 ± 0.27.

For TRSKSDPVLHPSEERAAPVLSCEA [FAM189A2], the protein stability index amounted to 5.49 ± 0.25 under setting [1] and 5.61 ± 0.15 under setting [2]. For TSQKIAARAFAQRYLADLLPSVFG [RSPH3], in that order: 2.12 ± 0.56 and 2.09 ± 0.18.

As for TSTGFDRHTSPVFSPANPESSMED [BCL2L13], the protein stability index reads like this: under setting [1], 5.39 ± 0.28; under setting [2], 5.16 ± 0.072. In turn, TSVDHDRAPVVGVRVNVLLSRYLI [DLC1] registered a protein stability index under setting [2] of 3.12 ± 1.8. Take TTDDTTAMASASSSATGSFSYPE [MAGEA10]: the protein stability index runs as follows: (treatment: DMSO, c terminus: native) 5.28 ± 0.14; (treatment: MLN4924 1 uM, 8 h, c terminus: native) 5.4 ± 0.066. Turning to TTFQDVYFVSESFEDAKEKMREFT [TPH1], the protein stability index runs as follows: under setting [1], 3.61 ± 0.2; under setting [2], 3.58 ± 0.29. Turning to TTRHGEVGSALHRESFTSRQKTSG [C10orf62], the protein stability index worked out at 4.75 ± 0.38 under setting [1] and 4.78 ± 0.083 under setting [2].

With TVAASDPDTGDNARLTYSIVGNQV [PCDHGC5], the protein stability index is, setting by setting: under setting [1], 4.36 ± 0.26; under setting [2], 4.31 ± 0.18.

For the sequence TVDCEPSDLFRLQEYNIPGVIQSV [CDS2], the protein stability index runs as follows: under setting [1], 3.01 ± 0.29; under setting [2], 3.16 ± 0.25. For TVNTHYFSIDEELVYENFYADFGP [CDC14A], in that order: 2.37 ± 0.28 and 2.67 ± 0.4. For TYPFLAMIMLKDRRMTVVGRLEGL [FAF2], in that order: 2.66 ± 0.76 and 2.57 ± 0.46. With VAAGVLCELAQDKEAAEAIEAEGA [CTNNB1], the protein stability index came to 5.31 ± 0.12 under setting [1] and 5.44 ± 0.12 under setting [2]. With VAEQVGIDKGDIPDLTQAPSSLME [SNAP91], the protein stability index is 4.97 ± 0.38 under setting [1] and 5.03 ± 0.23 under setting [2].
